Assay results from patent US11759508B2, “Antigenic peptides for treatment of B-cell malignancy” (ENTEROME S.A., priority 2019, dated 2023).
“Also recorded” adds a separate entry of the source.

What was measured:
[1] = test system: HLA-A2 HHD-DR1 humanized mice; experiment: ELISPOT-IFNγ on splenocytes of vaccinated HLA-A2 HHD-DR1 transgenic mice; format: in vivo, mouse; details: for cross-reactivity: T cell reaction after challenge with the human corresponding peptide: HHD-DR1 mice vaccinated with the bacterial peptide; for immunogenicity (T cell response in ELISPOT-IFNγ after vaccination): HHD-DR1 mice, prime d0 and boost d14, splenocytes d21
From the text: (§1) Briefly, HLA-A2 HHD-DR1 humanized mice (C57BL/6JB2mtm1UncIAb-/-Tg(HLA-DRA, HLA-DRB1*0101)#GjhTg(HLA-A/H2-D/B2M)1Bpe) or HHD-DR3 humanized mice (C57BL/6JB2mtm1UncIAb-/-Tg(HLA-DRA,HLA-DRB1*0301)#GjhTg(HLA-A/H2-D/B2M)1Bpe) were assigned randomly (based on mouse sex and age) to experimental groups, wherein each group was immunized with a specific vaccination peptide (vacc-pAg) combined to a common helper peptide (h-pAg UCP2; sequence: […]; SEQ ID NO: 475; for HHD DR1 mice or h-pAg DR3; sequence […]; SEQ ID n° 473; for HHD DR3 mice) (as outlined in Table 4 below).
(§2) The peptides were provided as follows: • vacc-pAg: CD22-B1, CD19-B1, CD19-B2, CD37-B1, TNFRSF13C-B1 and MS4A1-B4 all produced and provided at a 4 mg/ml (4 mM) concentration; • h-pAg: DR3 or UCP2 re-suspended in pure distilled water at a 10 mg/mL concentration
(§3) The peptide formulation to be injected (emulsion) was prepared freshly on each day of injection and for each group. A mix for 10 animals was prepared using 2 mL luer lock syringes (460670 IV, B BRAUN) and luer connectors (Cole-Parmer, 45502-22): 500 μL of peptide mixture in syringe 1 was emulsified with 500 μL of IFA contained in syringe 2, at high speed as fast as possible until forming a thick (white foam) emulsion. Each emulsion was prepared in excess to compensate for the dead volumes at injection.
(§4) The animals were immunized on day 0 (do) with a prime injection, and on d14 with a boost injection. Each mouse was injected s.c. at tail base with 100 μL of an oil-based emulsion that contained: • 60nMole of vacc-pAg; 105nMole of UCP2 helper peptide (for HHD-DR1 mice) or 65nMole of DR3 helper peptide (for HHD-DR3 mice) • 10 μL of PBS to reach a total volume of 50 μL (per mouse); • Incomplete Freund's Adjuvant (IFA) added at 1:1 (v:v) ratio (50 μL per mouse). A.2 Analysis
(§5) Seven days after the boost injection (i.e. on d21), the animals were euthanized and the spleen was harvested. Splenocytes were prepared by mechanical disruption of the organ followed by 70 μm-filtering and Ficoll density gradient purification.
(§6) The cell suspensions were further used in an ELISPOT-IFNγ assay (Table 5). The cells were cultured in 200 μL of complete T cell medium. Experimental conditions (duplicates) were as follow: 2×10^5 total cells per well when cultured in presence of various pAg (10 μM) or medium-only; and 2×10^4 total cells when cultured in presence of CD3/CD28-loaded bead particles (T cell Activation/Expansion kit, 130-093-627, Miltenyi) (bead-to-cell ratio of 1:1). The cultures were assessed for their capacity to secrete IFNγ (Diaclone Kit Murine IFNγ ELISpot, 862.031-005PC), following the manufacturer's instructions (˜16-18 h incubation time before performing the assay). The peptides used for restimulation are described in Table 5.
(§7) Spots were counted on a CTL ELISpot reader. Data plotting and statistical analysis were performed with the Prism-5 software (GraphPad Software Inc.).
(§8) The data were provided as a number of spots per 1·10^6 total T cells. The individual average values (obtained from the triplicates) were next used to plot the group average values. Statistical analysis for comparison (to the medium condition) were performed using unpaired non-parametric test (Mann Whitney) (**: p<0.01; *: p<0.05).

[2] = test system: CD8 T cells from PBMCs of HLA-A*02 healthy donors; experiment: Detection of antigenic peptide-specific CD8 T cells with pMHC multimers after in vitro amplification; format: cell-based, human; details: one HLA-A2 healthy donor, after cell amplification (FIG. 17)
From the text: In vitro amplification method and specific pMHC multimers have been used for identification of CD22-B1, CD37-B1, TNFRSF13C-B1 and MS4A1-B4 specific T cells. pMHC multimers were generated for all the bacteria peptides and their respective human counterpart. PBMCs from several HLA-A*02 healthy donors (up to 19 donors) were collected, enriched after CD137 and CD8 selection and subjected to multiple rounds of in vitro amplification with EO2463 peptides loaded T2 cells to increase the number of specific T cell clones. Detection of OMP peptide specific CD8 T cells using cytometry analysis with the fluorescent multimer was performed on enriched CD8 T cell populations

[3] = test system: HLA-A2 HHD-DR3 humanized mice; experiment: ELISPOT-IFNγ on splenocytes of vaccinated HLA-A2 HHD-DR3 transgenic mice; format: in vivo, mouse; details: for immunogenicity (ELISPOT-IFNγ), FIGS. 11-13: HHD DR3 mice (printed as HHD DR1); for cross-reactivity of the T cells for the corresponding human peptides: summary statement for HHD DR3 and HHD DR1 mice
From the text: as §1, §2, §3, §4, §5, §6, §7, §8

[4] = test system: T2 cells loaded with bacterial peptide or human counterpart peptide; experiment: Cytotoxic assay of peptide-specific CD8+ T cells against peptide-loaded T2 cells (flow cytometry); format: cell-based; details: for killing of T2 cells loaded with the bacteria peptide by peptide-specific human T cell clones: clones expanded in vitro, FIG. 18; for killing of T2 cells loaded with the human TNFR13C (BAFF-R) or MS4A1 (CD20) peptide by peptide-specific human T cell clones: when cross-reactivity is observed with the staining (FIG. 17)
From the text: CD8+ T cells expanded per above were used to perform cytotoxic assays in presence of different ratios of target and effector cells to assess their cytotoxic capacity, using flow cytometry readout. Target cells were T2 cell lines loaded with bacterial peptide or human counterpart peptide. Negative control was T2 cells unloaded and T2 cells loaded with irrelevant peptide. […] More importantly, CD22-B1, CD37B1, TNFRSF13C-B1 and MS4A1-B4-specific human T cells clones expanded in vitro were able to kill T2 cells loaded with the human TNFR13C (BAFF-R) or MS4A1 (CD20) peptide when cross-reactivity is observed with the staining (FIG. 17).

[5] = molecular target: T1, HLA-A*0201 (Homo sapiens, UniProt P04439, D140Y/D185E/D98H/E176V/E277Q/G131W/G231S/I119V/I121R/I166T/I218V/L300P/L318F/N151K/N90K/P208A/P217A/Q86G/Q94H/R138H/R169H/T345S); experiment: Affinity of the peptide to T2 cell line (HLA-A*0201 expression, FACS, relative to HIV pol 589-597); format: binding; details: for Concentration of peptide that induces 20% of HLA-A2 expression: T2 cells, peptide 100-0.1 μM, 16 h, 37° C., anti-HLA-A2 FACS; for mean relative fluorescence intensity of T2 cells: normalized to HIV peptide = 100
T1 construct: human tumoral cell T2 which expresses the HLA-A*0201 molecule; endogenous in cells; host or cells: T2 cells (human, TAP1/2 negative)
From the text: The experimental protocol is similar to the one that was validated for peptides presented by the HLA-A*0201 (Tourdot et al., A general strategy to enhance immunogenicity of low-affinity HLA-A2.1-associated peptides: implication in the identification of cryptic tumor epitopes. Eur J Immunol. 2000 December; 30(12):3411-21). Affinity measurement of the peptides is achieved with the human tumoral cell T2 which expresses the HLA-A*0201 molecule, but which is TAP ½ negative and incapable of presenting endogenous peptides.
T2 cells (5.104 cells per well) are incubated with decreasing concentrations of peptides from 100 μM to 0.1 μM (4 points: 100 μM, 10 μM, 1 μM, 0.1 μM) in serum-free medium (TexMacs) supplemented with […] of β2 Microglobulin at 37° C. for 16 hours. Cells are then washed two times and marked with the anti-HLA-A2 antibody coupled to PE (clone BB7.2, BD Pharmagen).
The analysis is achieved by FACS (Macsquant analyzer 10-Miltenyi).
For each peptide concentration, the geometric mean of the labelling associated with the peptide of interest is subtracted from background noise and reported as a percentage of the geometric mean of the […] labelling obtained for the reference peptide HIV pol 589-597 at a concentration of 100 μM. […] A2. Solubilisation of Peptides
T2 cells (5.104 cells per well) are incubated with decreasing concentrations of peptides from 100 μM to 0.1 μM (4 points: 100 μM, 10 μM, 1 μM, 0.1 μM) in serum-free medium (TexMacs) supplemented with 100 ng/μl of 32 Microglobulin at 37° C. for 16 hours. Cells are then washed two times and marked with the anti-HLA-A2 antibody coupled to PE (clone BB7.2, BD Pharmagen).
For each peptide concentration, the geometric mean of the labelling associated with the peptide of interest is subtracted from background noise and reported as a percentage of the geometric mean of the […] labelling obtained for the reference peptide HIV pol 589-597 at a concentration of 100 μM.

AMNSLSLYI [MS4A1-B4]
cross-reactivity: T cell reaction after challenge with the human corresponding peptide [1]: react strongly | immunogenicity (T cell response in ELISPOT-IFNγ after vaccination) [1]: significant T cell responses; also recorded: strongly immunogenic | peptide-specific CD8 T cells detected with fluorescent multimer [2]: 19.7% | immunogenicity (ELISPOT-IFNγ), FIGS. 11-13 [3]: confirmed | cross-reactivity of the T cells for the corresponding human peptides [3]: shown | killing of T2 cells loaded with the bacteria peptide by peptide-specific human T cell clones [4]: capacity to kill | killing of T2 cells loaded with the human TNFR13C (BAFF-R) or MS4A1 (CD20) peptide by peptide-specific human T cell clones [4]: able to kill | Concentration of peptide that induces 20% of HLA-A2 expression [5]: 12.3 µM

FMPGLLFGA [TNFRSF13C-B33]
Concentration of peptide that induces 20% of HLA-A2 expression [5]: 13.20 µM

GLAFVPLQI (listed as Homo sapiens) [CD37-H1, reference compound]
Concentration of peptide that induces 20% of HLA-A2 expression [5]: 7.35 µM

GMAFVPLLL [CD37-B11]
Concentration of peptide that induces 20% of HLA-A2 expression [5]: 2.30 µM

ILIPAGIYL [MS4A1-B3]
Concentration of peptide that induces 20% of HLA-A2 expression [5]: 0.70 µM

ILPGLLFGL [TNFRSF13C-B31]
Concentration of peptide that induces 20% of HLA-A2 expression [5]: 1.60 µM

IMNSLSLFA (listed as Homo sapiens) [MS4A1-H4, reference compound]
Concentration of peptide that induces 20% of HLA-A2 expression [5]: >100 µM

LLFGAPALL (listed as Homo sapiens) [TNFRSF13C-H1, reference compound]
Concentration of peptide that induces 20% of HLA-A2 expression [5]: 11.76 µM

LLVGILHLV [CD19-B1]
cross-reactivity: T cell reaction after challenge with the human corresponding peptide [1]: react strongly | immunogenicity (T cell response in ELISPOT-IFNγ after vaccination) [1]: significant T cell responses; also recorded: strongly immunogenic | cross-reactivity of the T cells for the corresponding human peptides [3]: shown | Concentration of peptide that induces 20% of HLA-A2 expression [5]: 3.7 µM

LMFGAPALV [TNFRSF13C-B1]
cross-reactivity: T cell reaction after challenge with the human corresponding peptide [1]: react strongly | immunogenicity (T cell response in ELISPOT-IFNγ after vaccination) [1]: significant T cell responses; also recorded: strongly immunogenic | peptide-specific CD8 T cells detected with fluorescent multimer [2]: 13% | immunogenicity (ELISPOT-IFNγ), FIGS. 11-13 [3]: confirmed | cross-reactivity of the T cells for the corresponding human peptides [3]: shown | killing of T2 cells loaded with the bacteria peptide by peptide-specific human T cell clones [4]: capacity to kill | killing of T2 cells loaded with the human TNFR13C (BAFF-R) or MS4A1 (CD20) peptide by peptide-specific human T cell clones [4]: able to kill | Concentration of peptide that induces 20% of HLA-A2 expression [5]: 4.35 µM

LMIPAGIYA (listed as Homo sapiens) [MS4A1-H3, reference compound]
Concentration of peptide that induces 20% of HLA-A2 expression [5]: 4.83 µM

LQMGGFYLL [CD19-B7]
Concentration of peptide that induces 20% of HLA-A2 expression [5]: 49.63 µM

MS4A1-B41 (ILNSLSLLL)
Concentration of peptide that induces 20% of HLA-A2 expression [5]: 2.45 µM

SLFLGILSV (listed as Homo sapiens) [MS4A1-H5, reference compound]
mean relative fluorescence intensity of T2 cells ([5]; peptide 0.1 (μM)): 0 | mean relative fluorescence intensity of T2 cells ([5]; peptide 1 (μM)): 1.8 | mean relative fluorescence intensity of T2 cells ([5]; peptide 10 (μM)): 6.5

SLVGILHII [CD19-B11]
Concentration of peptide that induces 20% of HLA-A2 expression [5]: 5.97 µM

TLAYLIFCL (listed as Homo sapiens) [CD19-H6, reference compound]
Concentration of peptide that induces 20% of HLA-A2 expression [5]: 4.98 µM

TLLFLTPML [CD19-B2]
cross-reactivity: T cell reaction after challenge with the human corresponding peptide [1]: react strongly | immunogenicity (T cell response in ELISPOT-IFNγ after vaccination) [1]: significant T cell responses; also recorded: strongly immunogenic | cross-reactivity of the T cells for the corresponding human peptides [3]: shown | Concentration of peptide that induces 20% of HLA-A2 expression [5]: 0.38 µM

WVFEHPETL (listed as Homo sapiens) [CD22-H1, reference compound]
Concentration of peptide that induces 20% of HLA-A2 expression [5]: 1.97 µM

YILGGLLMV [MS4A1-B12]
Concentration of peptide that induces 20% of HLA-A2 expression [5]: 31.20 µM

YLAYLIFEL [CD19-B6]
Concentration of peptide that induces 20% of HLA-A2 expression [5]: 3.76 µM

YLFLGILSL [MS4A1-B5]
Concentration of peptide that induces 20% of HLA-A2 expression [5]: 6.77 µM

YVFEHPELL [CD22-B11]
Concentration of peptide that induces 20% of HLA-A2 expression [5]: 0.2 µM
